The values below come from patent US20160009819A1 (SHIONOGI, published 2016).

One test deals with T1, mouse EL with C2 tag (mouse, UniProt Q9WVG5 21-500).
T1 construct: Heparin extract of transfected HEK293F cells; also called mouse E1; not shown: C2 tag
T1 sequence (looked up): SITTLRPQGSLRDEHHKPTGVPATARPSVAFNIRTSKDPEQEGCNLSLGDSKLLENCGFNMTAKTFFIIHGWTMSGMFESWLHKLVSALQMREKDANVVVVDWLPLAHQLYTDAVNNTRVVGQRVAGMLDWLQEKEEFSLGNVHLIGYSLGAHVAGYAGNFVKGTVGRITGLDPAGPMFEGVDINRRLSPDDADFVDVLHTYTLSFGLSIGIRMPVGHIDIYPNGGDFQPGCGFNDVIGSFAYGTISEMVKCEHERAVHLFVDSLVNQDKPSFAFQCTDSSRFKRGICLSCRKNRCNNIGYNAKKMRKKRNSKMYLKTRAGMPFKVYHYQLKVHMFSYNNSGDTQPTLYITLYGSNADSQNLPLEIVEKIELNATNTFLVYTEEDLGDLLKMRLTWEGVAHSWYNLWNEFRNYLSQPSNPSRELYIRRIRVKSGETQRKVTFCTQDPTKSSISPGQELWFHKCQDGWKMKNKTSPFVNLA
Nature of the test: ELISA: antibody captured on anti-mouse IgG-Fc plate, C2-tagged EL heparin extract added, anti-C2-tag detection, A450 (Example 8). On the procedure:
(§1) Assay buffer containing 15 μl of anti-EL antibody was added to anti-mouse IgG-Fc antibody-immobilized microtiter plate, and incubated for 2 hr. […] After washing the wells three times with 90 μL, of washing buffer, 15 μl of assay buffer containing biotin-labeled anti-C2-tag antibody and HRP-labeled Streptavidin were added to the wells and incubated at room temperature for 1 hr. After washing the wells three times with 90 μL of washing buffer, 15 μL of TMB+-Substrate-Chromogen (DAKO) was added and incubated at room temperature for 30 min and then 15 μL of 0.05 M H2SO₄ was added and absorbance at 450 nm was measured (FIG. 3A-3K).
(In general: An ELISA detects its analyte on a solid surface through an enzyme-linked reagent.)

Test [1] deals with T2, human [1-305]-mouse chimeric EL with C2 tag (human; mouse, UniProt Q9WVG5 306-500).
T2 construct: Heparin extract of transfected HEK293F cells; probably 97; Built here from the name of the chimera; not shown: C2 tag
T2 sequence: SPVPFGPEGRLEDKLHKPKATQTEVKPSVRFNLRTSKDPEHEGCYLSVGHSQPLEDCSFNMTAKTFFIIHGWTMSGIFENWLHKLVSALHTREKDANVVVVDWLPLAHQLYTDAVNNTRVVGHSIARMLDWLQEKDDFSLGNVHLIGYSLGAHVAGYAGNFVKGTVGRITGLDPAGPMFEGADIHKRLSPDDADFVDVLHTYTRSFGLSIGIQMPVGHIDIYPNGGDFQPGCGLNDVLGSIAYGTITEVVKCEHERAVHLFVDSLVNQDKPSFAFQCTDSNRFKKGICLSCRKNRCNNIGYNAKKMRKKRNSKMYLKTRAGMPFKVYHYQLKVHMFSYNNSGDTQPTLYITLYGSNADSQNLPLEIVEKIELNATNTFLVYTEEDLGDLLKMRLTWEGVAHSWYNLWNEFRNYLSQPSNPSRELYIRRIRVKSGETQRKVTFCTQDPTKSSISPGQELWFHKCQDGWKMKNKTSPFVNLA
Kind of test: SPR (Biacore), EL captured by anti-C2-tag antibody on CM5 chip, antibody injected, bivalent fit. On the procedure: (§2) The binding affinities of anti-EL antibodies were measured using Biacore. […] Then, anti-EL antibodies were added and the binding affinities were calculated by bivalent fitting of BIAevaluation software.
Background: Surface plasmon resonance follows binding to a sensor surface in real time, without labels.

Test [2] has as its target T3, baboon EL (vascular endothelial lipase) with C2 tag (baboon, UniProt Q9Y5X9 21-500 (human entry), limits assumed).
T3 construct: also called baboon EL-C2 tag
T3 chain: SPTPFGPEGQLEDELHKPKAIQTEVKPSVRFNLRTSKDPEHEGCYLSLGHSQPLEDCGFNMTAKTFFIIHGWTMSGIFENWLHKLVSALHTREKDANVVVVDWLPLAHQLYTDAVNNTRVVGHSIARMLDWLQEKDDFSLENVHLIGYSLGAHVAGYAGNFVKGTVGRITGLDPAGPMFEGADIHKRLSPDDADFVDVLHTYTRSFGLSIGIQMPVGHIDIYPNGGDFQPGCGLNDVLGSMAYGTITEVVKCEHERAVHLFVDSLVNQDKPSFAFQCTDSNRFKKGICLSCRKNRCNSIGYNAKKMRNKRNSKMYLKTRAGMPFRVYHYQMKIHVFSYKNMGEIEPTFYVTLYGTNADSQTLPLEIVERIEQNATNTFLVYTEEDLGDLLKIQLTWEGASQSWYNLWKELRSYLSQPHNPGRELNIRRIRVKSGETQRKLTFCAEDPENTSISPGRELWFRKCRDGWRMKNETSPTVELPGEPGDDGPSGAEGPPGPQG
Kind of test: ELISA: antibody captured on anti-mouse IgG-Fc plate, C2-tagged EL heparin extract added, anti-C2-tag detection, A450 (Example 8). On the procedure: as §1

In test [3] the target is T3, baboon EL (vascular endothelial lipase) …. Nature of the test: SPR (Biacore), EL captured by anti-C2-tag antibody on CM5 chip, antibody injected, bivalent fit. The procedure: as §2
For test [4], the target named is T4, human [1-157]-mouse chimeric EL with C2 tag (human; mouse, UniProt Q9WVG5 158-500).
T4 construct: Heparin extract of transfected HEK293F cells; shifted by one: 4); Built here from the name of the chimera; not shown: C2 tag
T4 sequence: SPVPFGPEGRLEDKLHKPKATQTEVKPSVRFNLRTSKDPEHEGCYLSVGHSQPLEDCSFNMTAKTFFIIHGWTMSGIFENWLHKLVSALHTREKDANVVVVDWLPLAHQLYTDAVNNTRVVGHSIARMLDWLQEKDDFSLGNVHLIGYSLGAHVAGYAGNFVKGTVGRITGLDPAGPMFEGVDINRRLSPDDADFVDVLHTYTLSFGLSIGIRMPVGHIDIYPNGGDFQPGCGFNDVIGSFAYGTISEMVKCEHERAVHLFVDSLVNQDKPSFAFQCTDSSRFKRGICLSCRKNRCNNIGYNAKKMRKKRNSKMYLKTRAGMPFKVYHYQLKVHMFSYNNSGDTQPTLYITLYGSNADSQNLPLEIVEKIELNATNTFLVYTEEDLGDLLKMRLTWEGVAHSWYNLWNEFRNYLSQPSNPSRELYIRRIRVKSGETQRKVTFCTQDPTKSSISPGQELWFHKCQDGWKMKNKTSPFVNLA
Nature of the test: ELISA: antibody captured on anti-mouse IgG-Fc plate, C2-tagged EL heparin extract added, anti-C2-tag detection, A450 (Example 8). The procedure:
as §1

B1: 14A1 antibody (antibody, V domains shown)
VH: QIQLVQSGPELKKPGETVKISCKASGYTFTNYGMNWVKQAPGKGLKWMGWINTYSGVPTYADDFKGRFAFSLETSASTAYLQINNFKNEDTATYFCARFSYYGRHYFDYWGQGTALTASS
VL: DIVLTQSPASLAVSLGQRATISCKASQSVDYDGDSYMNWYQQKPGQPPKLLIYAASNLKSGIPARFSGSGSGTDFTLNIHPVEEEDAATYYCQQTTDDPPWTFGGGTKLEIK
notes: Mouse hybridoma antibody, IgG1
As for B1, the binding result with mouse EL with C2 tag is recorded as “no binding (tested: about 300 ng/mL)”.

B2: 2D5 antibody (antibody, V domains shown)
VH: QIQLVQSGPELKKPGETVKISCKASGYTFTNYGMNWVKQAPGKGLKWMGWINTYSGVPTYTDDFKGRFAFSLETSASTAFLQINNLKNEDTATYFCARFSYYGRHYFDYWGQGTTLTVSS
VL: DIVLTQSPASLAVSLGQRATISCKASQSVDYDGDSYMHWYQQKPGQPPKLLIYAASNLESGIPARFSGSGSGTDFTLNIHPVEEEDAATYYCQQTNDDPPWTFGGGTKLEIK
notes: Mouse hybridoma antibody, IgG2a
For B2, the binding result with mouse EL with C2 tag is “no binding (tested: about 300 ng/mL)”.

B3: 7D4 antibody (antibody, V domains shown)
VH: QIQLVQSGPELKKPGETVKISCKASGYTFTNYGMNWVKQAPGKDLKWMGWINTYSGVPTYADDFKGRFAFSLETSASTAYLQINNLKNEDTATYFCARFSYYGRHYFDYWGQGTTLTVSS
VL: DIVLTQSPASLAVSLGQRATISCKASQSVDYDGDSYMNWYQQKPGQPPQLLIYAASNLGSGIPARFSGSGSGTDFTLNIHPVEEEDAATYYCHQSTDDPPWTFGGGTKLEIK
notes: as for B1
On to B3, for which, in the test with mouse EL with C2 tag, the binding result was “no binding (tested: about 300 ng/mL)”.

B4: 16B3 antibody (antibody, V domains shown)
VH: DVKLVESGGGLVQPGGSLKLSCTASGFTFSGYTMSWVRQTPEKRLELVAEISFARDRAFYPDTVKGRFTISRDNAKNTLYLQMSSLKSEDTAMYYCTRLGGRNHDYWYFDVWGTGTTVTVSS
VL: DIVLTQSPTSLAVSPGQRATISCRASESVEYYGTSLMQWYQQKPGQRPQLLIYAASNVESGVPARFSGSGSGTDFSLNIHPVEEDDIAVYFCQQSWKVPFTFGSGTKLEIK
notes: as for B2
As for B4, the binding result in the test with mouse EL with C2 tag is “no binding (tested: about 300 ng/mL)”.

B5: 16E7 antibody (antibody, V domains shown)
VH: EVKLVESGGGLVQPGGSLKLSCAASGFTFSSYTMSWVRQTPEKRLELVAEISFTRSRAFYPDTVKGRFTISRDNAKNTLYLQMSSLKSEDTAMYYCARLGGNNYDYWYFDVWGTGTTVTVSS
VL: DIVLTQSPTSLAVSLGQRATISCRASESVEYYGTSLMQWYQQKPGQRPKLLIYAASNVESGVPARFSGSGSGTDFSLNIHPVEEDDIAMYFCQQSWKVPFTFGSGTKLEIK
notes: as for B1
One may read the kon as a measure of how fast the partners come together. Low values mean slow association, high ones fast association. For orientation: EC50 (read off the curve) means the midpoint of the concentration-response curve. In test [1], B5 had a kon of 950000 M⁻¹ s⁻¹. Further, the half-maximal effective concentration (EC50 (read off the curve)) in test [2] is around 10 ng/mL.

B6: 19E7 antibody (antibody, V domains shown)
VH: QVQLQQPGSVLVRPGASVKLSCKASGYTFTTYWMHWVKQRPGQGLEWIGEIHPYSGNNNNNEKFKGKATLTVDTSSSTAYVDLSRLTSEDSAVYYCARYDSNYVFAYWGQGTLVTVSA
VL: QIVLTQSPAIMSASPGEGVTITCSASSSVSYMHWFQQKPGTSPKLWIYSTSNLASGVPARFSGSGSGTSYSLTISRMEAEDAATYYCQQRDSYLTFGSGTKLEVK
notes: as for B2
As to B6, the kon in test [3] amounted to 67000 M⁻¹ s⁻¹. In addition, the binding result (in test [4]; with mouse EL with C2 tag) was “no binding (tested: about 300 ng/mL)” each time.

B7: 55A1 antibody (antibody, V domains shown)
VH: QIHLVQSGPELKKPGETVKISCKASGYTFTNYGMNWVKQAPGKGLKWMGWINTYSGVPTYAGDFKGRFAFSLETSASTAYLQINNLKNEDTATYFCARRGYYGRRYFDVWGTGTTVTVSS
VL: DIVLTQSPASLAVSLGQRATISCKASQSVDYDVDSYMHWYQQKPGQPPKLLIYAASNLASGIPARFSGGGSGTDFTLNIHPVEEEDVATYYCQQTIEDPPTFGGGTKLEIK
notes: as for B2
On to B7, for which, in the test with mouse EL with C2 tag, the binding result was “no binding (tested: about 300 ng/mL)”.

B8: 13B3 antibody (antibody, V domains shown)
VH: EVQLQQSGPELLKPGASVKISCKASGYTFTEYTMHWVKQSHGKSLEWIGSINPYYGGTSYNEKFKDKATLTVDKSSNTAYMEFRSLTSEDCAVYYCARYGNYVGYFDYWGQGTTLTVSS
VL: ENVLTQSPAIMSASLGEKVTMSCRASSSVHYMYWYQQKSDASPKLWIYYTSNLAPGVPDRFSGSGSGNSYSLTISSMEGEDAATYYCQQFTSSPYTFGGGTKLEIK
notes: as for B2
Take B8: the binding result in the test with mouse EL with C2 tag was “no binding (tested: about 300 ng/mL)”.

B9: 23H8 antibody (antibody, V domains shown)
VH: EVQLQQSGPELLKPGASVKISCKASGYTFTDNTIHWVKQSHGKSLEWIGHINPYYGGTNNNEKFKDKATLTVDKSSSTAYMELRSLTSEDSAIYYCARKGIYYSSPFDYWGQGTTLTVSS
VL: DIQMTQTTSSLSASLGDRVTISCRASQDINNYLNWYQQKPDGTVKLLISYTSKLHSGVPSRFSGSGSGTDYSLTISNLEREDFATYFCQQGNTLPFTFGSGTNLEIK
notes: as for B2
Turning to B9, the binding result with mouse EL with C2 tag is “no binding (tested: about 300 ng/mL)”.

B10: 53A11 antibody (antibody, V domains shown)
VH: EVQLQQSGPELLKPGASVKISCKASGYTFTDYTMHWVKQSHGKSLEWIGGINPYYGGTTYNEKFKDKATLTVDKSSSTAYMELRSLTSEDSAVYYCAKGDYYGGSYNYWGQGTTLTVSS
VL: DIVLTQSLATLSVTPGDSVSLSCRASQDISNSLHWYQQKSHESPRLLIKYASQSISGIPSRFSGSGSGTDFTLSINSVETEDFGMYFCQQSNSWPYTFGGGTKLEIK
notes: as for B2
As for B10, the binding result with mouse EL with C2 tag is “no binding (tested: about 300 ng/mL)”.
